Measurements from the supplement of paper PMC12042874.
± gives the uncertainty stated by the source.

test: amyloid nucleation score (Sup35N fusion, yeast selection) (log enrichment); library NNK2; higher = more nucleation; inactive = no reads after selection
Procedure, shortened: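 Output and input plasmid inserts were sequenced by Illumina after psi-negative yeast carrying Sup35N fused to peptides of 20 random codons had been induced 24 hours with 100 μM copper sulfate and grown 7 days at 30°C on medium lacking adenine and uracil. The nucleation score is the DiMSum log enrichment of output over input reads, centred on the mode score of non-aggregating sequences. Sequences with under 100 input reads were excluded.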

Substance | amyloid nucleation score
HNITLLQLNCKWLKMVYEWT | 9.366 ± 0.061
KHFAIW | -0.08 ± 1
FPFSGFVDFSVLVLRYKGSP | 1.82 ± 0.16
RNTTKWKMMTLTFNCTRRKK | -0.766 ± 1
MNNDSAFIEYTGHQWIWGVR | 0.269 ± 0.26
ISCKSFENTTHPALIPRVKA | -0.331 ± 0.5
FSCSLQRIGEMSRDKSYTPA | 0.503 ± 0.66
RVRSGKKHDW | 1.01 ± 0.14
NVHDEWKGFVSGTCGKVEKA | 0.355 ± 0.29
NWDKKKGRDR | inactive
MKLVECNMDGCDTNTSFGWL | -0.884 ± 0.78
FGVNS | -0.021 ± 0.63
YCMASLSSLNLVRHWDDESS | -1.01 ± 1.1
YGCLNYSRWRTSAGMDTNNG | -0.794 ± 0.63
LPYHCNWHMLSYLTCGYCS | 0.711 ± 0.6
LLGESRGVDSLQTTLWRSRR | 0.334 ± 0.24
RTYGYRDIQVQYRFCFCRGD | 8.589 ± 0.057
VKGGSRS | -0.186 ± 0.49
DLLHETML | -0.781 ± 1.1
RAVTRVKHICLSATRSCDVE | 0.523 ± 0.21
IFRDNVYFIE | -0.692 ± 1
ECIYIMFKACGLRDRFSQVF | 1.84 ± 0.13
WFTYQVAYVWYGRNFDTSPA | 7.961 ± 0.067
WGLFPLQCHLVYRLLLSFHK | inactive
CVVVRSCI | -0.342 ± 1.1

Substance | amyloid nucleation score
GRLRDCRDEHNSNPTLRFTS | 0.449 ± 0.16
GYMRSLGHYSADVMEYLYNW | 0.052 ± 0.45
RDVVSLGLQEGNSRMRHTGG | 0.82 ± 0.23
VTMKHVAGSSHDCPYAILTN | 0.082 ± 1
YCRHGGNRASL | 0.783 ± 0.53
PSWGSLCMSQNHMHLEV | -0.087 ± 0.42
LNQCWRI | inactive
CIVSVNERRVVFGAVNTEFR | 4.79 ± 0.058
IVSAKDILRLIYSVCGAGLG | -0.264 ± 0.48
YMLTKYRYS | 0.734 ± 0.81
VHLTAVWCLDRRRVRKIFIV | -0.802 ± 0.76
GFPLLHTGILVSNLYMLRAR | -0.536 ± 1.1
VFSTTSLNV | -0.647 ± 0.34
RLILY | -0.775 ± 0.43
TTIFGNSATLDGIPHIIKRP | -0.268 ± 0.79
CFKLTNINAL | inactive
MHASGHWYMKRSSLGADSPV | 0.815 ± 0.18
VSAWWQDVYSCTHTHAPAAQ | 5.46 ± 0.098
LCYMFIFRTWMLLWVQTMKN | inactive
HSSMLLSVFDLNARK | -0.174 ± 0.49
FGNSDLNRAMLKRAKQMRSL | inactive
SQNETFFKMCVELN | 0.165 ± 0.54
QNDLIWSSW | -1.32 ± 0.49
FTVKGTITVYFMVAV | 2.17 ± 0.11
LLFRRMEKSRLSLERV | -0.257 ± 0.45

Substance | amyloid nucleation score
DLYIS | 0.13 ± 0.8
LLANPIELRRYGPTSLKVGI | -0.669 ± 0.55
VQDYFFSCFATRSV | 3.26 ± 0.059
ISQRSNASCVN | 0.966 ± 0.48
GPSDLIFLPGLMAPRS | -0.373 ± 1.1
FGKAF | -0.375 ± 0.79
DIDKGSTEGDVMEGKLVNNV | 0.171 ± 0.2
TSGRLR | 1.67 ± 0.38
LTIYRSHDVRM | 3.88 ± 0.043
PARLCAVVL | 0.066 ± 0.76
PQSWIVHRTIVHGSLGSCFP | -0.4 ± 0.3
IHLKLRRYLDNYYLNATNCG | -0.509 ± 0.31
EKQKWYYLELREAAQC | 0.284 ± 0.2
DFNVSLSCHEKLMMVSFRWR | -0.373 ± 0.34
SNMNNPRHLCAKLSKRQMSY | inactive
YTRKVSAG | -0.063 ± 0.36
CFLMNKVT | -1.5 ± 0.49
DMRLKGLTRVFTGDNRFSLL | -0.064 ± 0.54
MRLNYVYGCSFLDRIGT | 0.57 ± 0.33
TFMMLMEHGRIYFLWASPVA | -1.68 ± 1.1
DCRVGSLSAGRQLSARAAGK | 0.633 ± 0.41
HHHLRQVLGESQYLSCLWIK | 0.388 ± 0.47
VALRFTIMDCRIYLYSLNVF | 0.125 ± 0.79
DNRKDSFMLHSFGTKVSGHK | 0.918 ± 0.37
LCHKATSSFYPW | -0.808 ± 0.45

Substance | amyloid nucleation score
NLGYYTG | -0.868 ± 1.1
SLDGGPAVVEEATFRGSMAF | -0.567 ± 1.1
ADRYMHSTHVDNCPYAGFTS | 0.444 ± 0.44
NGWKYLYIWFPAICSCFMRG | -0.213 ± 0.24
NKWSPEGNSACRDSVCTHIY | -0.807 ± 0.76
SCIMECM | -0.108 ± 1.1
YAPRCNPNRNLLNMT | 4.47 ± 0.058
LWLADDSATRV | 0.814 ± 0.19
YPTASVTATSHTFILSSNKN | 3.48 ± 0.063
SNLNPVHSDLLMYEMPCNLT | -0.492 ± 1.1
GLGRKYNMRRRLKLVFWRSD | 4.23 ± 0.084
TDIKNRHILSNPWIRLYFLI | -1.16 ± 0.62
ACNWLESFIKCFICVWYRDK | 7.73 ± 0.079
DRYYRISSFYFISMTKLWD | inactive
YYLPLGYDWPWSYSKCSNTR | 4.04 ± 0.072
SSGFQNSSTNGTDAQS | 0.101 ± 0.76
LFIGSIILHYGEKEVKMLAT | 0.571 ± 0.49
CRLLCVIGLYVDNLGPPLAR | -0.044 ± 0.35
YNVMHRPGGWDFMYGNWMLG | 4.63 ± 0.063
ASGVYHDSFRRLCCMGDLSC | -0.121 ± 0.18
LNLLADNTLYGDSSYVGYLR | 0.021 ± 0.4
IVSIT | -0.271 ± 0.24
FAYSLTPFRWSRDLLMSPLG | 0.104 ± 0.28
RLSGRVTCSVNVGHSLKGTV | 4.529 ± 0.045
CGNNCTQYRHDWWGGMKLRD | 2.38 ± 0.085

Substance | amyloid nucleation score
VLLRDNGLELFAP | 0.779 ± 0.3
QYDSSFT | -0.165 ± 0.55
PIITFNTI | -0.637 ± 1.1
RIFVIGNFVDCWLRLWT | 0.256 ± 0.65
YMSATVRCIYSRLY | 3.05 ± 0.13
HAVWSVFCEFIVRQCYGLYF | -1.37 ± 0.41
FIHRDGYSFDQVGFMGACF | 0.092 ± 1.1
NVAHGW | -0.322 ± 0.44
CFDEFTLCKVLWNMFSTFLG | -0.707 ± 1.1
AAPGCFNLKFLS | -0.36 ± 0.74
PSDFYWSMFEQYCHGV | 4.51 ± 0.05
SNCYLKRSYGFRDIITKIRY | 1.24 ± 0.14
YICMLLDKPRFLSRSSRSLV | inactive
GRCILGCHPATRTGMLRYFE | -0.087 ± 1
ISHMYCSFGSLVLFSGIRFR | -0.774 ± 0.53
FTIHWRVGCTQWLEAVIGYM | 4.07 ± 0.1
HFKSSKECSKWVGICREEGR | 0.338 ± 0.46
SYVMFSIMEH | 0.354 ± 0.65
SPLRALLTHVWRKQHTYFSN | 3.14 ± 0.08
FLVFHPRDSMNI | 1.49 ± 0.44
AEVGTPESLLEGNIDRERIP | 0.42 ± 0.36
AEYPHAFFSDCACYHIPGSA | 0.586 ± 0.57
NMRTNLWNIIAFLSSRSIAQ | 0.857 ± 0.35
VLASWSDFKSRGRGNSSVSG | 1.24 ± 0.33
SNYSPGFLCWALESSTNM | -0.99 ± 1.1

Substance | amyloid nucleation score
AIYKDRGWGATGHVFRILGR | 0.752 ± 0.57
WLVGHKLKYA | 0.113 ± 0.22
ILYYLGWVASALEGHYLDES | -0.853 ± 0.55
RINIFLRITFHNLLQLNRSG | 6.04 ± 0.081
VNAFLSLKSKACHWACGNDD | 3.67 ± 0.055
PDSMGKVIYYKSESCFYSRG | 2.72 ± 0.086
LDAERM | 0.306 ± 0.23
FRLILWPIDCAINTNRRCNR | 4.38 ± 0.051
SAIKYIGILAMRDQDQASQI | -1.59 ± 0.62
MTYCCITSVPRGRIQNDAVR | inactive
NRWYKLRLYICYDLRIAVFN | -1.58 ± 1.1
AAFQSMENCCAFCSVRRQES | -0.406 ± 0.38
ICVECSYVYMTGGKV | 3.79 ± 0.057
VLLTNQRMVFCMGRFAPRVG | -0.556 ± 0.32
TWHKFVSCDCGLH | 0.677 ± 0.47
TSYTLDYCGISMLKYFNSVD | 7.188 ± 0.062
ISVFLVMQRCVYDSYAFQAE | -0.503 ± 0.63
LQVVKKSNA | 3.61 ± 0.061
RTRCYCVYFRLLVHFA | 0.057 ± 1.1
SISGHSWTKCVRVHYALIYG | 1.07 ± 0.38
HDQGSTMFCGRNAATLSQCW | 1.54 ± 0.25
FRYHRTSCQSHSVWRTFTSF | -0.884 ± 0.39
NAVYACLVGEVLWSSISTLS | 0.058 ± 0.54
TRWLGGISMGNSVFVLIRTL | 0.416 ± 0.51
WTLTGHVRNLKLQVCMSVY | 0.789 ± 0.6

Substance | amyloid nucleation score
LPGLIGS | 1.96 ± 0.26
NLTVCMLDSPGYQKDCGMRL | 1.54 ± 0.27
ILVWANSHVLDVDHRDRGRR | 1.9 ± 0.13
NLLWLFDV | 0.19 ± 1.1
FPENDWL | -0.552 ± 0.44
LNMTSFAVKLEANYL | -0.565 ± 1.1
YRWVHLEFGARLAFQSVKNI | 0.241 ± 0.8
LFIRINWDFSNLWGTFGITV | 0.553 ± 0.2
ICFNTSLVPECKHSRSEFDS | 0.643 ± 0.64
FCPMVLAFTSRGIATKNCGV | 0.566 ± 0.74
RFAFFVYPTYMRMTVTVLSY | inactive
TVHDYFDVQECVIDQCKGLP | 0.654 ± 0.57
YMYDVRICPFDNWVYRRNEC | -0.107 ± 0.74
YYSDVGVYSVRGYLLWS | -0.447 ± 0.61
CLSNL | -0.864 ± 0.48
RIVMKRRFYCKSWSLIVHPG | -0.826 ± 0.28
KHVLGWNISFFYFTFAIG | inactive
FIVMEVVEERCMSIVVESNQ | -0.804 ± 0.61
AVCTESMLWS | 0.057 ± 0.16
SNRLRVVQ | -0.069 ± 0.32
SGSVLFGRVYRRRFLFWVVD | inactive
PPWCLNVCDMLRRSHLAFKR | -0.213 ± 1.1
